Source: PMC10491584, “Structural convergence endows nuclear transport receptor Kap114p with a transcriptional repressor function toward TATA-binding protein” (Nature Communications, 2023)
Values joined by “and” are separate entries in the source; they are usually repeats but may differ in a detail not shown here. Identical values can stand only once.

T1: Kap114p wild type (S. cerevisiae, UniProt P53067 1-1004)
T1 construct: Kap114p (karyopherin-β), S. cerevisiae, full length, amplified from total genomic DNA; GST tag followed by a PreScission site (modified pGEX6p1); PreScission protease added during dialysis; also called Kap114p WT; GST-Kap114p (plasmid pGEX-6P-1-Kap114); source: E. coli Rosetta, purified (GST resin, MonoQ, Superdex 200)
T1 sequence (looked up): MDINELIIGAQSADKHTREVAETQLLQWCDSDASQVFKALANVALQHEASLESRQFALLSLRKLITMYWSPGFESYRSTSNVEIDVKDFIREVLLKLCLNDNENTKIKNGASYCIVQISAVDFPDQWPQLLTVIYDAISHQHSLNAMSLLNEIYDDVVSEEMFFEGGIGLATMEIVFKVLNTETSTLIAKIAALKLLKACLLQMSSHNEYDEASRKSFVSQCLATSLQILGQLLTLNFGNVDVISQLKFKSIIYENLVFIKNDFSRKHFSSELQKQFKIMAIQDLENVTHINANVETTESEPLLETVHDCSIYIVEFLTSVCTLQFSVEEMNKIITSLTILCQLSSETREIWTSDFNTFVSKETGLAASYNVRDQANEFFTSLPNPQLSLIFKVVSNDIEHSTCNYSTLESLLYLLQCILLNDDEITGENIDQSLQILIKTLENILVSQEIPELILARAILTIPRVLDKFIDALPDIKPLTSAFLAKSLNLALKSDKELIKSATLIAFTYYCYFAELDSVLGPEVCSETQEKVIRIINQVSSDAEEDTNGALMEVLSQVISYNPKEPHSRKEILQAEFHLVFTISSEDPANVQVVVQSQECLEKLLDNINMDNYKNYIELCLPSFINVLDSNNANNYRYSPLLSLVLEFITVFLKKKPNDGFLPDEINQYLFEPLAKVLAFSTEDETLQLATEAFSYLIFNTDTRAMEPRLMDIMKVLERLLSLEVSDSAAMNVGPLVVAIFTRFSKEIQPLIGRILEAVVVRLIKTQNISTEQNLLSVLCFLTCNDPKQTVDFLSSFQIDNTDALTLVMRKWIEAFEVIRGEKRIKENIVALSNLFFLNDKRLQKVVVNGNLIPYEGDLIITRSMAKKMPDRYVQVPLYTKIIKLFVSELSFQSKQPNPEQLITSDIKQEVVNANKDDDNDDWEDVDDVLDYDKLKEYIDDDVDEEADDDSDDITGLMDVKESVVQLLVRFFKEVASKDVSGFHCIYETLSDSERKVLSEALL

T2: Kap114pΔ(932-941) (S. cerevisiae, UniProt P53067 1-1004, Δ(932-941))
T2 construct: Kap114p, S. cerevisiae, full length with residues 932-941 deleted; also called Kap114p(D932-941); Kap114p deletion mutant lacking the HEAT19 loop (a.a. 932-941); source: E. coli (Rosetta strain), purified (GST resin, MonoQ, Superdex 200)
T2 sequence (looked up): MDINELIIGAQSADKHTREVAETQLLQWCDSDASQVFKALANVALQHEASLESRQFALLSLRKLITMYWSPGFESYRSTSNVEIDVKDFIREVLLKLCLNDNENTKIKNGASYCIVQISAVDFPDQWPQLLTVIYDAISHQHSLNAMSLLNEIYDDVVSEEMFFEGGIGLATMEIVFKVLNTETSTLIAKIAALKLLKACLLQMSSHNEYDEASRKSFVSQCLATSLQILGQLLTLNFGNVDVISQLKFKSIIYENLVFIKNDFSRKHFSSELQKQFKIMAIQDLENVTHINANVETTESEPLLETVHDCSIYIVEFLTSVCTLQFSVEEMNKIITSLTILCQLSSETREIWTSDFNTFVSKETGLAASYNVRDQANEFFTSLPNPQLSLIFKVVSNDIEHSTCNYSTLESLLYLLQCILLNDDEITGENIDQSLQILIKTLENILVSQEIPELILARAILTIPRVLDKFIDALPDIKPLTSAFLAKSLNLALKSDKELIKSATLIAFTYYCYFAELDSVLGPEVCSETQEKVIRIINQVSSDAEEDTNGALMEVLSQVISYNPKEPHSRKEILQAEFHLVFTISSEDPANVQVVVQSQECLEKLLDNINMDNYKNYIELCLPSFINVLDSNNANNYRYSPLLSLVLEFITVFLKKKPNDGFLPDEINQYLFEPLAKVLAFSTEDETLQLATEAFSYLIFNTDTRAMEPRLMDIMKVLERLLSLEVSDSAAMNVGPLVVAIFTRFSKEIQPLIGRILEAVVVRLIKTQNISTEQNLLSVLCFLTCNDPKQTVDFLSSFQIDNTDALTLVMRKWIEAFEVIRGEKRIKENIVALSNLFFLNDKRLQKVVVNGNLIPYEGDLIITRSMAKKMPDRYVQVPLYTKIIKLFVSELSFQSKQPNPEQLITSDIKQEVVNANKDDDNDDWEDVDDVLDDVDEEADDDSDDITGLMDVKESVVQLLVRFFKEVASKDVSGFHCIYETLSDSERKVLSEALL


Assays:
Kap114p wild type = target: T1, Kap114p wild type; assay: ITC; MicroCal iTC200, 25 °C, 20 mM HEPES pH 7.4, 150 mM NaCl; low concentration: 25 µM wild type or mutant Kap114p in the sample cell, 250 µM wild type or mutant yTBPC in the syringe; triplicate; conditions: both partners purified
Kap114pΔ(932-941) = target: T2, Kap114pΔ(932-941); assay: ITC; Kap114p (wild type or mutant) 50 uM in the sample cell, partner 500 uM in the syringe; 25 °C; 20 mM HEPES pH 7.4, 150 mM NaCl; triplicate; conditions: both partners purified

Kd (Kap114p wild type) | Ka (Kap114pΔ(932-941)) | Binder
1.4 nM | – | yTBP^C wild type (core domain of yeast TATA-box binding protein, a.a. 61-240) (domain or fragment, S. cerevisiae, UniProt P13393 61-240, looked up, modified pET28a, 6xHis tag followed by a PreScission site; also called yTBPC WT; His-yTBP (61-240); source: E. coli Rosetta, purified (Ni-NTA, HiTrap SP, Superdex 75); not shown: His6, N-terminal, cleaved) SGIVPTLQNIVATVTLGCRLDLKTVALHARNAEYNPKRFAAVIMRIREPKTTALIFASGKMVVTGAKSEDDSKLASRKYARIIQKIGFAAKFTDFKIQNIVGSCDVKFPIRLEGLAFSHGTFSSYEPELFPGLIYRMVKPKIVLLIFVSGKIVLTGAKQREEIYQAFEAIYPVLSEFRKM
– | 5.09e+06 M⁻¹ and 8.69e+06 M⁻¹ and 6.15e+06 M⁻¹ | core domain of yTBP (a.a. 61-240) (domain or fragment, S. cerevisiae, UniProt P13393 61-240, looked up, 61-240; also called yTBP^C; yTBPc; source: E. coli (Rosetta strain), purified (Ni-NTA, HiTrap SP, Superdex 75); not shown: 6xHis, N-terminal, cleaved) SGIVPTLQNIVATVTLGCRLDLKTVALHARNAEYNPKRFAAVIMRIREPKTTALIFASGKMVVTGAKSEDDSKLASRKYARIIQKIGFAAKFTDFKIQNIVGSCDVKFPIRLEGLAFSHGTFSSYEPELFPGLIYRMVKPKIVLLIFVSGKIVLTGAKQREEIYQAFEAIYPVLSEFRKM
